Laboratory results reported in patent US8586570B2, “Sox-based kinase sensor” (Massachusetts Institute of Technology, priority 2006, dated 2013).

How the values were obtained:
[1] = Fluorescence increase, phosphopeptide vs unphosphorylated peptide at 485 nm; format: physicochemical; conditions: phosphopeptide / unphosphorylated peptide intensity at 485 nm, generally 10 mM Mg2+
Method: Fluorescence experiments were performed on a Fluoromax 3 from Jobin Yvon. 5 nm emission and excitation slit widths were used. For all experiments, an excitation wavelength of 360 nm was used. Enzyme assays were performed by monitoring emission at 485 nm.
After peptide characterization, emission spectra were obtained for unphosphorylated and phosphorylated peptides under appropriate conditions. The spectra were generally acquired in the presence of 10 mM Mg^2+(although lower Mg^2+concentrations can and have been used as well) and either 0, 0.1 or 1 mM ATP in a preselected buffer (usually 20 mM HEPES, pH 7.4). Relying on the emission spectra the fold fluorescence differences were measured by dividing the fluorescence intensity of the phosphopeptide by the fluorescence intensity of its unphosphorylated counterpart at 485 nm. FIG. 2 depicts the fluorescence spectra of the phosphorylated and unphosphorylated peptides in the appropriate assay mixture: (A) emissions scans of PKCβI-1 (10 μM), 10 mM Mg(II), 3×; (B) emissions scans of PKCβI-1 (10 μM), 10 mM Mg(II), 0 mM ATP, 3×.; (C) fluorescence difference for PKCβI-1 (10 μM), 10 mM Mg(II), 3×; (D) fluorescence increase for PKCβI-1 (10 μM) at 10 mM Mg (II).

PKCβII = PKCβII (Homo sapiens, UniProt P05771); assay: Cross-reactivity of PKCα-S10 with PKC isozymes; format: biochemical; conditions: peptide 1 μM, isozyme 2 ng
Method: (§1) With the kinetic parameters at hand it is possible to test the cross-reactivity of PKCα-S10 with PKC isozymes. In 12 separate reactions PKCα-S10 (1 μM) is subjected to phosphorylation with PKCα, PKCβI, PKCβII, PKCγ, PKCδ, PKCε, PKCζ, PKCη, PKCθ, PKCι, PKCμ and PKCν (2 ng).

PKCμ = biological target: T1, PKCμ (Homo sapiens, UniProt Q15139); assay: Cross-reactivity of PKCα-S10 with PKC isozymes; format: biochemical; conditions: peptide 1 μM, isozyme 2 ng
T1 sequence (Q15139 1-912): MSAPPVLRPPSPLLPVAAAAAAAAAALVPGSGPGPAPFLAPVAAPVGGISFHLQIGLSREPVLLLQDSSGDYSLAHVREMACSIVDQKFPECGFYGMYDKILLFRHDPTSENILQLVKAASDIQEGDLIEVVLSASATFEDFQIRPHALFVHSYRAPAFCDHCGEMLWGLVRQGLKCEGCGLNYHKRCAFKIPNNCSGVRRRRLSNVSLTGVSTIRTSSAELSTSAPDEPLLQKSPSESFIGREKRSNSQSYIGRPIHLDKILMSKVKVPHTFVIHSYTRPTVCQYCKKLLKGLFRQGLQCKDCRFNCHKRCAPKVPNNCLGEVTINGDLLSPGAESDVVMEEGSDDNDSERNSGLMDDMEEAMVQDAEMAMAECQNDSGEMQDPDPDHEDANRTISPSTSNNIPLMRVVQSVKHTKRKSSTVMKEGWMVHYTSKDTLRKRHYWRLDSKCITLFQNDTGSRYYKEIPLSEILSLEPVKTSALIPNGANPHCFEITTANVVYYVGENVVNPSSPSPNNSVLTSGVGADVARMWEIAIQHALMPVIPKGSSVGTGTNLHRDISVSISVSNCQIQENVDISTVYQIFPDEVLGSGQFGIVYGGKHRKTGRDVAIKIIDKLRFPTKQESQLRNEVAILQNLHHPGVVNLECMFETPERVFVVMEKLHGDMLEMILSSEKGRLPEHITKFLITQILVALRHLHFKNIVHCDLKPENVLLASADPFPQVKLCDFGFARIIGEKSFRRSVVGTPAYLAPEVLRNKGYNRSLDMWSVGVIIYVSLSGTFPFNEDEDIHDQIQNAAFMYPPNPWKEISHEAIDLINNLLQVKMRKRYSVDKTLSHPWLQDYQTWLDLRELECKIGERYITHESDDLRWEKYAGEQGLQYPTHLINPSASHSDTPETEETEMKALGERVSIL
Method: as §1

PKCν = biological target: T2, PKCν (Homo sapiens, UniProt O94806); assay: Cross-reactivity of PKCα-S10 with PKC isozymes; format: biochemical; conditions: peptide 1 μM, isozyme 2 ng
T2 sequence (O94806 1-890): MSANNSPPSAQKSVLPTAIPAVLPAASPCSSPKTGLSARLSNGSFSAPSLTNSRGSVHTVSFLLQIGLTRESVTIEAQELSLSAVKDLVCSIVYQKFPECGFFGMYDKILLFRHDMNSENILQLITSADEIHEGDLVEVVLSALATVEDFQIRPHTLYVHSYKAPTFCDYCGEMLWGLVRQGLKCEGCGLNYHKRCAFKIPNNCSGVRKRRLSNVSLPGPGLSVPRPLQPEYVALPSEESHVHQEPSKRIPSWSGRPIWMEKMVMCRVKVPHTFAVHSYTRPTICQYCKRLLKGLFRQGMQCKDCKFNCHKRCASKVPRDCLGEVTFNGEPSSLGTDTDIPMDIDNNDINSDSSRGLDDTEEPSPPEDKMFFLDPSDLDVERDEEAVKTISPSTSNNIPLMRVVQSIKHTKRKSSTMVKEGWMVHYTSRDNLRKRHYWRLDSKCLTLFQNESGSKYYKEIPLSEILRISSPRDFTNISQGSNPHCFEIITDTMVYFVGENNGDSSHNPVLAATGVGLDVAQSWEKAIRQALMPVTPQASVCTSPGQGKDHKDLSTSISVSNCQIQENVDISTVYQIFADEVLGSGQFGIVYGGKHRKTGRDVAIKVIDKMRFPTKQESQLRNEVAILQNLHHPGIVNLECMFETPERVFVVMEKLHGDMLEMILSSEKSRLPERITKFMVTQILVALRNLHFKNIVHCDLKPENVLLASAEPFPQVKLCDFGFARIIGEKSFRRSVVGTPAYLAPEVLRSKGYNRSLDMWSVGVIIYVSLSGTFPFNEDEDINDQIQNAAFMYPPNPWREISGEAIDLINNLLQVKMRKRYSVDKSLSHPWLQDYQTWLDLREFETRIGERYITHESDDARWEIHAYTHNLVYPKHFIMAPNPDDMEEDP
Method: as §1

Sequence of PKCβII (P05771 1-673 isoform P05771-2): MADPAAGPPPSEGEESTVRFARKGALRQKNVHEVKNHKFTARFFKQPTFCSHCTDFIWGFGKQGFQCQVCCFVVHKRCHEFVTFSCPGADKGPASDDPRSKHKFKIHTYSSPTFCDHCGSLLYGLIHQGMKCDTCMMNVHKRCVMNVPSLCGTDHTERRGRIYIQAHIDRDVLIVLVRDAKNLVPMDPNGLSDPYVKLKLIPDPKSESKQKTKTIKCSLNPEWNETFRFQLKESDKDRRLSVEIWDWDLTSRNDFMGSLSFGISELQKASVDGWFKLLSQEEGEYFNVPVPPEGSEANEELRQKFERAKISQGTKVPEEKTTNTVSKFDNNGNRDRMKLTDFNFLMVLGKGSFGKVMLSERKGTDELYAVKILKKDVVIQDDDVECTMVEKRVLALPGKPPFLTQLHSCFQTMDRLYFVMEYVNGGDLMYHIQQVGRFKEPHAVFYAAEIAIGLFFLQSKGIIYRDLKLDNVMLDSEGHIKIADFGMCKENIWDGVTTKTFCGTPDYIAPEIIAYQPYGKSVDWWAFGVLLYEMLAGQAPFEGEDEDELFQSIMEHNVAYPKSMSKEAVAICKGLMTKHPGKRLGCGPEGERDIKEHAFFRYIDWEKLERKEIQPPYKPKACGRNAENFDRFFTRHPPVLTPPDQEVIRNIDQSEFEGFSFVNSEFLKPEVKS

**Q.** With “Ac-RRR-C(Sox)-ASFRRKA-CONH2 [PKCα-S10(P10), Sox chemosensor with extended recognition domain for PKCα]” as the substance, how does the “Fluorescence Increase” value [1] read?
**A.** Its value is 3.9 x.

**Q.** What about the “activity of isozyme on peptide compared with PKCα” value (PKCβII) of the same substance?
**A.** Its value is “comparable activities to that of PKCα”.

**Q.** And the “activity of isozyme on peptide” value (PKCμ)?
**A.** Its value is “no activity”.

**Q.** And the “activity of isozyme on peptide” value (PKCν)?
**A.** The value was “no activity”.
